Earlier results in article PMC8542695.
pKd: −log10 of the molar value.

Legend:
[1] = biological target: p53 (Homo sapiens) (UniProt P04637)
[2] = biological target: annexin A2 (ANXA2) (Homo sapiens) (UniProt P07355)
[3] = biological target: non-muscle myosin 2A (NM2A) (Homo sapiens) (UniProt P35579)
non-muscle myosin 2A (NM2A) (Homo sapiens), sequence (P35579 2-1960): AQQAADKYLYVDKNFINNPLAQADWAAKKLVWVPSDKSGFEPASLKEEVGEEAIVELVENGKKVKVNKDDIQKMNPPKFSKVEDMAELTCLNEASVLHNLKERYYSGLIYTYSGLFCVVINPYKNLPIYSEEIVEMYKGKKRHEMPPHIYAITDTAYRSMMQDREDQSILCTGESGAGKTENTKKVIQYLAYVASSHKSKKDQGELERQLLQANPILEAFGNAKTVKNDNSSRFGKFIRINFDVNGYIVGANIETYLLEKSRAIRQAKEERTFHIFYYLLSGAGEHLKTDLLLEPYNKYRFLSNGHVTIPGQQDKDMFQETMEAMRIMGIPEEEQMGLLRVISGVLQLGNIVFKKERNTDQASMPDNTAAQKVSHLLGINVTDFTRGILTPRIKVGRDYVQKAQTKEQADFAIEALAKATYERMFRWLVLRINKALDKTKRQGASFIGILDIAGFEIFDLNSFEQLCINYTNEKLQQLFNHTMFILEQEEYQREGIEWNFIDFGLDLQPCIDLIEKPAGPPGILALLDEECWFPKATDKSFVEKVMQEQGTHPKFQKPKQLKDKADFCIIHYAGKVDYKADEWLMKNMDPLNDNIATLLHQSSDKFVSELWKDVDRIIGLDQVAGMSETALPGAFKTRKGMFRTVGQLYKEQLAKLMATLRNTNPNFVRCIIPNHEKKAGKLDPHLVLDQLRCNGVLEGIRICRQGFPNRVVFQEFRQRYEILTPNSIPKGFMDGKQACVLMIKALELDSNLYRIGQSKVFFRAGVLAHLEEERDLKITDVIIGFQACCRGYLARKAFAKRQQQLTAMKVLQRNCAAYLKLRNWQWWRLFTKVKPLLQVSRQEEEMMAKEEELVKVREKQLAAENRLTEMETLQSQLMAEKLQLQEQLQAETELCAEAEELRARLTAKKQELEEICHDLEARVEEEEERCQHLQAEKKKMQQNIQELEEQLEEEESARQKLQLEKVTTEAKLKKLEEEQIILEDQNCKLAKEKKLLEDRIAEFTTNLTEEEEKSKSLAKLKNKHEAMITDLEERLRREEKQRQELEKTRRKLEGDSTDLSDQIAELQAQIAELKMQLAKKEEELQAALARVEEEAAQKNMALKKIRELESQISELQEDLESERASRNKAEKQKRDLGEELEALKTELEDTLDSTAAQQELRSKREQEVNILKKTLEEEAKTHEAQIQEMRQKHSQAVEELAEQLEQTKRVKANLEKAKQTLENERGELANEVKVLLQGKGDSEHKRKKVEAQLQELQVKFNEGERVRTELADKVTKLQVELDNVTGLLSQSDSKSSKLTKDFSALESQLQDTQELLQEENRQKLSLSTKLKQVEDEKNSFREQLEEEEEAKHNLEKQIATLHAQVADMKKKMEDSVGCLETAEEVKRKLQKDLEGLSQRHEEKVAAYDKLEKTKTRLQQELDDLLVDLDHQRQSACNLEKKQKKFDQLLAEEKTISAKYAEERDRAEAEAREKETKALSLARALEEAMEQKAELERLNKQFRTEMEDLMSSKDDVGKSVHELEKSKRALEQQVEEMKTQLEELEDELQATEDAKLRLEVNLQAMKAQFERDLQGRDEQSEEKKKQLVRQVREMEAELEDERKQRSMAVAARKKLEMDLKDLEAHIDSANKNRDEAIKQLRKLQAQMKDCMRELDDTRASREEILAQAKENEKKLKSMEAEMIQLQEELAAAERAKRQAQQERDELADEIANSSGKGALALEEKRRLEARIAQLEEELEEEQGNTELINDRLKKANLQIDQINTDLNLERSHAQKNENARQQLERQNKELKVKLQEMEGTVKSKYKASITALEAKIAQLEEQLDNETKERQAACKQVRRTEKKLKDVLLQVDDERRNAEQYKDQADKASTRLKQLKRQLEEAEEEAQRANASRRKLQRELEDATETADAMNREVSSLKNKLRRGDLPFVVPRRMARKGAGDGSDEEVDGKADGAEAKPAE

S100A4, sequence (P26447 2-101): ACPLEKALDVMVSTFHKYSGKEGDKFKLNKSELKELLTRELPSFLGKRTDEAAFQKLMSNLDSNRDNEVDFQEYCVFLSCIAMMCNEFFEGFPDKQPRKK
annexin A2 (ANXA2) (Homo sapiens), sequence (P07355 2-339): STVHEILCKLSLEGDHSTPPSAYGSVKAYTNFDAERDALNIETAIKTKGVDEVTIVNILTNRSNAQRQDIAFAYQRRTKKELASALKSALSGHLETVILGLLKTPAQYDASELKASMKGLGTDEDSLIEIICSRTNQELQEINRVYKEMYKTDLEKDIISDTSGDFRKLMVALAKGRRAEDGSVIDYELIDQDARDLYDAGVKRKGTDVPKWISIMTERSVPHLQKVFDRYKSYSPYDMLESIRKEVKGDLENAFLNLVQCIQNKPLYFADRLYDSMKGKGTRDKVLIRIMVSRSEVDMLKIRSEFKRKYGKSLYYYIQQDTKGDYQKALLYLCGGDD
p53 (Homo sapiens), sequence (P04637 whole entry): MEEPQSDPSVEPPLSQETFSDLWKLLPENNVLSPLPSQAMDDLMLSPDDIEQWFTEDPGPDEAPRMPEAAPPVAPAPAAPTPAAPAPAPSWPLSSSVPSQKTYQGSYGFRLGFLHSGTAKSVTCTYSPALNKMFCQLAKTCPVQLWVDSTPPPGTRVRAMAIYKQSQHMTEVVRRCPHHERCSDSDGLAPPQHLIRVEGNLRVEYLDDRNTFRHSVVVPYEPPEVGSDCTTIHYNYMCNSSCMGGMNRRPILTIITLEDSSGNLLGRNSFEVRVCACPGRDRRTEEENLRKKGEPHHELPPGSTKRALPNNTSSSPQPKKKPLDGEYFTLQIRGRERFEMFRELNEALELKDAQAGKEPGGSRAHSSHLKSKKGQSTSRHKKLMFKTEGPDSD

Substance: S100A4 (from UniProt P26447)
- pKd [1]: 5.70
- pKd [2]: 5.70
- pKd [3]: > 9.00
